Patent US20130171070A1 (Genentech, published 2013)
Changes are numbered by the printed parent chain.

B1: chimeric 166-32 Fab (Fab, V domains shown)
VH: QIQLVQSGPELKKPGETVKISCKASGYTFTNYGMNWVKQAPGKGLKWMGWINTYTGETTYADDFKGRFVFSLETSASTAYLEINNLKNEDMATYFCEREGGVDNWGQGTTLTVSS
VL: ETTVTQSPASLSMAIGEKVTIRCITSTDIDDDMNWYQQKPGEPPKLLISGGNTLRPGVPSRFSSSGYGADFVFTIDNMLSEDVADYYCLQSDNLPYTFGGGTRLEIK
notes: Tested as a Fab; also called chimeric Fab
B2: humanized anti-Factor D Fab clone #250 (Fab, V domains shown)
VH: QVQLVQSGPELKKPGASVKVSCKASGYTFTNYGLNWVRQAPGQGLEWMGWINTYTGETTYADDFKGRFVFSLDTSVSTAYLQISSLKAEDTAVYYCEREGGVNNWGQGTLVTVSS
VL: DIQVTQSPSSLSASVGDRVTITCITSTDIDDDMNWYQQKPGKVPKLLISHGNTLRPGVPSRFSGSGSGTDFTLTISSLQPEDVATYYCLQSDSLPYTFGQGTKLEIK
B3: humanized anti-Factor D Fab clone #416 (Fab, V domains shown)
VH: B2 VH with N31S, L34M
VL: B2 VL with H50D
B4: humanized anti-Factor D Fab clone #56 (Fab, V domains shown)
VH: B2 VH with L34M, R38K, V93T, N103D
VL: B2 VL with G16R, H50G, S93N

Biological target: T1, Human factor D (Advanced Research Inc) (human, UniProt P00746 26-253)
T1 construct: Amine-coupled directly to a CM5 chip for BIAcore; also called factor D antigen
Assay: SPR (BIAcore), human factor D amine-coupled to CM5 chip, Fab as analyte, 1:1 model, global fit
Experimental: Immobilization—Human factor D (Advanced Research Inc, 0.1 mg/ml) was directly immobilized onto the CM5 chip (BiaCore) using amine-coupling method. The procedure is briefly described as following: (1) Constant flow (PBS) is at 5 μl/min, (2) Injection of 35 μl EDC/NHS (1:1). (3) Injection of 35 μl of human factor D in acetate buffer, pH 4.5. (4) Block the activated group by injection of 35 μl etholamine. (5) Clean-up the surface by 5 μl 10 mM Glycine pH 1.5.
Kinetic analysis—All anti-human factor D Fabs were diluted in PBS buffer. Each sample was prepared in a series of concentrations: 12.5 nM, 25 nM. 50 nM, 75 nM, 100 nM, 125 nM, and 150 nM, with 40 μl injection pulse at high acquisition rate. Regeneration was accomplished by applying 5 μl pulse of 10 mM Glycine at pH 1.5. Kinetic parameters were obtained by fitting Fabs binding traces to 1:1 binding model under pseudo-first order kinetic using BIAvaluation version 3.0. All data are obtained by global fitting routine.

T1 sequence (P00746 26-253 limits assumed): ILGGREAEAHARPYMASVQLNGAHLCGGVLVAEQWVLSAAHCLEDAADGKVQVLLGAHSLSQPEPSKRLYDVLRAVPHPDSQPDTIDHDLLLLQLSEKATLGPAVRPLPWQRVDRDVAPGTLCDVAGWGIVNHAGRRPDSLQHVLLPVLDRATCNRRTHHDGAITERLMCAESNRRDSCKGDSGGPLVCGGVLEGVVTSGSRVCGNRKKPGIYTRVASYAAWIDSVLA

| Kd | koff | kon | Binder |
| --- | --- | --- | --- |
| 2.7 nM | 0.0012 s⁻¹ | 440000 M⁻¹ s⁻¹ | B1 |
| 0.33 nM | 0.00019 s⁻¹ | 570000 M⁻¹ s⁻¹ | B2 |
| 0.33 nM | 0.00018 s⁻¹ | 820000 M⁻¹ s⁻¹ | B3 |
| 2.7 nM | 0.00098 s⁻¹ | 360000 M⁻¹ s⁻¹ | B4 |
